Measurements as given in patent publication US9873733B2, “Anti-staphylococcal antibodies” (priority 2012, dated 2018).
Positions count from the first letter of the chain named.

Legend:
[1] = tested on: Staphylococcus aureus clinical isolate 703; assay: Killing of clinical isolate 703 by daptomycin; type: cell-based; conditions: 11 μg/ml daptomycin, in the presence of the anti-lysozyme antibody
Procedure: (§1) Overnight cultures of S. aureus SA113 Δspa were diluted in fresh MHB medium and adjusted to OD600 0.25 (˜1.5×10^7 cells). Antibodies were adjusted to a concentration of 1 mg/ml and 10 μl were applied per well of a 96 well plate and diluted in 90 μl of the adjusted cell suspension (final antibody concentration: 100 μg/ml). Cells were grown in the presence of anti-lysozyme antibody (control) or with the anti-MprF antibodies. Duplicates were employed for each assay. After 3 hours of incubation under shaking conditions at 37° C., optical density was determined, adjusted to OD600 0.025 in 500 μl ice cold PBS buffer. 80 μl of the adjusted cell suspension were diluted with 20 μl of antimicrobial substances to final concentrations of 22.5 μg/ml nisin. After incubation for 2 hours under shaking conditions at 37° C., the cell suspensions were diluted 1:2000 and 100 μl of each duplicate was plated in triplicates on TSB medium containing agar plates to obtain a representative value of bacterial survival. Cells treated without antimicrobial substance were set at 100% and survival values were calculated with cells treated with antimicrobial substances. At least three independent assays were employed.
In this experiment killing of Staphylococcus aureus clinical isolate 703 (described in Jones et al., AAC 2008) by daptomycin in the presence of an MprF specific antibody was analyzed. […]

[2] = tested on: Staphylococcus aureus clinical isolate 703; conditions: Jones et al., AAC 2008; cited from earlier work
[3] = tested on: Staphylococcus aureus clinical isolate USA300 (MRSA); assay: Growth inhibition of clinical isolate USA300 by nisin; type: cell-based; conditions: nisin 4.5 μg/ml
Procedure: (§2) Therefore S. aureus (S. aureus SA113) cells grown to mid-log phase were used to inoculate fresh TSB medium. These cultures were mixed with anti-MprF (1 μM) antibody or control IgG respectively or with anti-MprF (1 μM) antibody or control IgG in combination with nisin (6 μg/ml). The growth of the S. aureus in presence of anti-MprF antibody was monitored in culture plates shaking at 37° C. by measuring OD600. […] (FIG. 7)
In this experiment growth inhibition of Staphylococcus aureus clinical isolate USA300 by nisin was tested in the presence of an MprF specific antibody.
The experiment was performed as described in Example 5. Instead of S. aureus SA113 the clinical isolate S. aureus USA300 was used. The concentration of nisin was 4.5 μg/ml instead of 6 μg/ml nisin.

[4] = tested on: S. aureus SA113; assay: Growth inhibition assay with nisin; type: cell-based, Staphylococcus aureus; conditions: nisin 6 μg/ml
Procedure: as §2

[5] = biological target: cyclic peptide representing loop 4 of MprF (Staphylococcus aureus, UniProt Q2G2M2); conditions: IgG in PBS; biotinylated cyclic peptide 5 μg/ml
Procedure: (§3) The IgGs were tested for binding to the antigen, which was used in their selection. Also binding to other MprF-peptides was tested to check for selectivity.
(§4) For ELISAs with cyclic antigen, the biotinylated cyclic peptides (final conc. 5 μg/ml) were incubated with IgGs in PBS. Then the mix was transferred to a pre-blocked Neutravidin plate (Thermo Scientific), incubated and then the plate was washed with PBS containing 0.5% of TWEEN20. MprF-specific IgGs were detected using goat-anti-human IgG (Sigma).
(§5) In both cases washing was performed using PBST ([…] with 0.05% TWEEN20. Detection was performed using alkaline phosphatase coupled Goat anti-human IgG (Sigma Cat. # A-8542 and Attophos™ substrate Roche, Cat. #11681982001). Fluorescence was measured at an excitation of 440±25 nm and an emission of 550±35 nm. Full signal intensity is typically reached after 5-15 min at room temperature.

[6] = tested on: S. aureus SA113 Δspa; assay: Killing of S. aureus by nisin with MprF antibodies; type: cell-based, Staphylococcus aureus; conditions: antibody 100 μg/ml, 22.5 μg/ml nisin, 2 hours; anti-lysozyme antibody as control
Procedure: In this experiment killing of Staphylococcus aureus was tested. Nisin was used as an exemplary cationic antimicrobial compound. Nisin was tested in combination with selected antibodies of the present invention. An anti-lysozyme antibody was used as a negative control.
as §1

[7] = biological target: cyclic peptide representing loop 6 of MprF (Staphylococcus aureus, UniProt Q2G2M2); conditions: IgG in PBS; biotinylated cyclic peptide 5 μg/ml
Procedure: as §3, §4, §5

[8] = tested on: S. aureus mutants lacking MprF expression (delta spa delta mprF); assay: Whole cell ELISA on S. aureus mutant lacking MprF; type: binding, Staphylococcus aureus; conditions: compared with delta spa
Procedure: (§6) The specificity of the purified antibodies was tested for binding to whole cell Staphylococcus aureus in an ELISA assay. Escherichia coli bacteria were used as a negative control.
(§7) For ELISA on S. aureus the Protein A deletion mutant (delta spa) or the mutant with an additional deletion in MprF (delta spa delta mprf) were grown to mid log phase, than washed in PBS and resuspended in saline to a final OD600 of 0.6. This bacterial culture was coated on Maxisorp plates (Nunc). Plates were blocked with 2% BSA/PBS and washed with TSB containing 0.5% TWEEN20.

[9] = biological target: cyclic peptide representing loop 5 of MprF (Staphylococcus aureus, UniProt Q2G2M2); conditions: IgG in PBS; biotinylated cyclic peptide 5 μg/ml
Procedure: as §3, §4, §5

[10] = tested on: MprF on S. aureus (Protein A deletion mutant, delta spa); assay: Whole cell ELISA on S. aureus; type: binding, Staphylococcus aureus; conditions: E. coli as negative control
Procedure: as §6, §7

[11] = biological target: linear peptide representing loop 1 of MprF (Staphylococcus aureus, UniProt Q2G2M2); conditions: IgG at various concentrations; peptide 5 μg/ml
Sequence of linear peptide representing loop 1 of MprF (Q2G2M2 31-50, looked up, natural form): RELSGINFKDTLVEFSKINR
Procedure: as §3
MprF-specific IgGs were detected using goat-anti-human IgG (Sigma).
as §5

## CCCCCCCCCC(=O)N[C@@H](Cc1c[nH]c2ccccc12)C(=O)N[C@H](CC(N)=O)C(=O)N[C@@H](CC(=O)O)C(=O)N[C@@H]1C(=O)NCC(=O)N[C@@H](CCCN)C(=O)N[C@@H](CC(=O)O)C(=O)N[C@H](C)C(=O)N[C@@H](CC(=O)O)C(=O)NCC(=O)N[C@H](CO)C(=O)N[C@@H]([C@H](C)CC(=O)O)C(=O)N[C@@H](CC(=O)c2ccccc2N)C(=O)O[C@@H]1C [daptomycin, reference compound]
[1]
  Effect of daptomycin on S. aureus 703: no effect on S. aureus 703
[2]
  Responsiveness of S. aureus clinical isolate 703 to daptomycin: non-responsive to daptomycin

## nisin
[3]
  Growth of S. aureus USA300, nisin alone: an effect of nisin alone in terms of reducing bacterial growths was observed
[4]
  Growth of S. aureus (OD600), nisin alone: an effect of nisin alone in terms of reducing growths of bacteria was observable

B1: M-C4.2: human IgG1 against cyclic peptide, loop 4 of MprF; VH3-23 kappa 1; VL Seq. ID: 54, VH Seq. ID: 55 (antibody, V domains shown)
VH: EVQLLESGGGLVQPGGSLRLSCAASGFTFSSYAMHWVRQAPGKGLEWVSVISSVGSSTYYADSVKGRFTISRDNSKNTLYLQMNSLRAEDTAVYYCARGGLDVWGQGTLVTVSS
VL: DIQMTQSPSSLSASVGDRVTITCRASQDISKYLNWYQQKPGKAPKLLIYAASRLQSGVPSRFSGSGSGTDFTLTISSLQPEDFATYYCQQGDSTPFTFGQGTKVEIKRT
modifications: MC42 VH; MC42 VL
notes: human IgG1 against cyclic peptide, loop 4 of MprF; VH3-23 kappa 1; ID: 55
[5]
  Specific binding to cyclic loop 4 peptide (ELISA): specifically bind to cyclic loop 4 peptide in a dose-dependent manner
[6]
  Sensitivity of S. aureus towards nisin (killing, bacterial survival): most pronounced effects

B2: M-C6.2: human IgG1 against cyclic peptide, loop 6 of MprF; VH1A kappa 1; VL Seq. ID: 104, VH Seq. ID: 105 (antibody, V domains shown)
VH: QVQLVQSGAEVKKPGSSVKVSCKASGGTFSSYAISWVRQAPGQGLEWMGGIIPILGIANYAQKFQGRVTITADESTSTAYMELSSLRSEDTAVYYCARSLPYRSDLYGFSRWSYHRVGMDVWGQGTLVTVSS
VL: B1 VL with K31N, Y32T, R53T, G91V, D92G, T94F, F96Y
modifications: MC62 VH; MC62 VL
notes: human IgG1 against cyclic peptide, loop 6 of MprF; VH1A kappa 1; ID: 105
[7]
  Specific binding to cyclic loop 6 peptide (ELISA): specifically bind to cyclic loop 6 peptide in a dose-dependent manner
[6]
  Sensitivity of S. aureus towards nisin (killing, bacterial survival): most pronounced effects

B3: M-C5.1: human IgG1 against cyclic peptide, loop 5 of MprF; VH1A kappa 1; VL Seq. ID: 74, VH Seq. ID: 75 (antibody, V domains shown)
VH: QVQLVQSGAEVKKPGSSVKVSCKASGGTFSSYAISWVRQAPGQGLEWMGGIVPIFGTANYAQKFQGRVTITADESTSTAYMELSSLRSEDTAVYYCARVRYGYWDVWGQGTLVTVSS
VL: B1 VL with S30A, K31N, Y32W, R53S, G91Y, D92I, T94L, F96I
modifications: MC51 VH; MC51 VL
notes: human IgG1 against cyclic peptide, loop 5 of MprF; VH1A kappa 1; ID: 75
[8]
  Binding to S. aureus mutants lacking MprF expression (ELISA): significantly weaker binding
[9]
  Specific binding to cyclic loop 5 peptide (ELISA): specifically bind to cyclic loop 5 peptide in a dose-dependent manner
[10]
  Binding to whole cell S. aureus (ELISA): detect MprF on S. aureus
[6]
  Sensitivity of S. aureus towards nisin (killing, bacterial survival): most pronounced effects

B4: M-L1: human IgG1 against linear peptide, loop 1 of MprF; VH1A kappa 3; VL Seq. ID: 14, VH Seq. ID: 15 (antibody, V domains shown)
VH: QVQLVQSGAEVKKPGSSVKVSCKASGGTFNSYAIHWVRQAPGQGLEWMGGIIPIFGIANYAQKFQGRVTITADESTSTAYMELSSLRSEDTAVYYCARDQYTYDYYRAFDYWGQGTLVTVSS
VL: DIVLTQSPATLSLSPGERATLSCRASQSVRDNLAWYQQKPGQAPRLLIYGASNRATGIPARFSGSGSGTDFTLTISSLEPEDFAVYYCQQYDHSPRTFGQGTKVEIKRT
modifications: ML1 VH; ML1 VL
notes: human IgG1 against linear peptide, loop 1 of MprF; VH1A kappa 3; ID: 15
[8]
  Binding to S. aureus mutants lacking MprF expression (ELISA): significantly weaker binding
[10]
  Binding to whole cell S. aureus (ELISA): detect MprF on S. aureus
[11]
  Specific binding to linear loop 1 peptide (ELISA): specifically bind to linear loop 1 peptide in a dose-dependent manner
